In US20220002432A1 (VIRTUOSO BINCO, published 2022):
Positions count from the first letter of the chain named.

T1: Rhesus-ICAM1 (rhesus, UniProt Q5NKV6 28-480, limits assumed)
T1 sequence (looked up): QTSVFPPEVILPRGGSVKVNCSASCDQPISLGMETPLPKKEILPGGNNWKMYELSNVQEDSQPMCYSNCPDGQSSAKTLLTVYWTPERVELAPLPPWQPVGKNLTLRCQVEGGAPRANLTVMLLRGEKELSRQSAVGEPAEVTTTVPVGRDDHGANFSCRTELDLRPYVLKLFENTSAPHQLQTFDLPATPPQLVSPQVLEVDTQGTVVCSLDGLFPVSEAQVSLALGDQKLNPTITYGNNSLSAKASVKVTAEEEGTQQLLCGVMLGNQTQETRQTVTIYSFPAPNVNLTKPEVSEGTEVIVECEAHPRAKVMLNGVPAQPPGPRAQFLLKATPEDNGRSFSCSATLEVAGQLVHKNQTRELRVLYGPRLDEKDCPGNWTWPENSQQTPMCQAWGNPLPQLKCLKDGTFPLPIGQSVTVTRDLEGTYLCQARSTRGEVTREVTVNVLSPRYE

B1: 27F6 (antibody, human IgG1, kappa, V domains shown)
VH: QSLEESGGGLVKPGASLTLTCKASGFSFSSGCDMCWVRQAPGKGLEWISCIYTGSGSTYYANWAKGRFTISRTSSTTVTLQMTSLTAADTATYFCAGDSDYLGLWGPGTLVTVSS
VL: DIVMTQTPSSVEAAVGGTVTIKCQASQNIGNYLAWYQQKPGQPPKVLIYRASTLASGVPSRFKGSGSGTHFTLTISDLESADAATYYCQSYYYTTDDNYRSWAFGGGTEVVVKR
notes: Rabbit-human chimeric anti-CD38: rabbit VH and VL on human IgG1 and kappa constant regions
B2: 17E9 (antibody, human IgG1, kappa, V domains shown)
VH: QSVEESGGRLVTPGTPLTLTCTASGFSLSRYYVTWVRQAPGKGLEWIGIIYISGTTYYATWAKGRFTISKSATTVDLRIASPTTEDTATYFCAAAWPVGTYVLPLWGPGTLVTVSS
VL: AAVLTQTPSPVSAAVGGTVTIKCQSSQSVVNANNLSWYQQKPGQPPKLLIYLASTLASGVPSRFSGSGSGTQFTLTISSVQSDDAATYYCLGVYDDDGDNAFGGGTEVVVKR
notes: as for B1
B3: 25E4 (antibody, human IgG1, kappa, V domains shown)
VH: QSLEESGGRLVTPGTPLTLTCTVSGIDLSIYTMAWVRQAPGKGLEYIGIISGYGTTYYATWAKGRFIVSKTSTTVDLKITSPTTEDTATYFCVRTTVQSTDLWGPGTLVTVSS
VL: DIVMTQTPASVEAAVGGTVTINCQASQNIYSNLAWYQQKPGQRPKLLIYKASTLASGVSSRFKGSGSGTEFTLTISDLASADAATYYCQSYYGATSSSFGYGFGGGTEVVVKR
notes: as for B1
B4: 25C3 (antibody, human IgG1, kappa, V domains shown)
VH: QEQLEESGGDLVKPGASLTLTCKASGFSFSSAYDMCWVRQAPGKGLEWVACLYTVSSDSIYYASWAKGRFTISRTSSTTVTLQMTSLTAADTATYFCARDGDYFALWGPGTLVTVSS
VL: DIVMTHTPASVEAAVGGTVTIKCQASQNIGGYLSWYQQKPGQRPKLLIYRASTLASGVPSRFKGSGSGTQFTLTISDLESADAATYYCQTYYYSGSSRYWAFGGGTEVVVKR
notes: as for B1
B5: 23B3 (antibody, human IgG1, kappa, V domains shown)
VH: QSVEESGGRLVTPGTPLTLTCTVSGFSLSNYDMTWVRQAPGRGLEWIGVISSGDNTNYARWAKGRFTISKTSSTTVDLKITSPTTEDTATYFCARILYNKGRYYFTFWGPGTLVTVSS
VL: AQVLTQTPSSVSAAVGGTVTINCQSSQSIANSDELAWYQQKPGQPPKLLIYDASTLAPGVPSRFSGSGSGTQFTLTISGVQSDDAATYYCQGTVYDSGWYAAFGGGTEVVVKR
notes: as for B1
B6: 25F12 (antibody, human IgG1, kappa, V domains shown)
VH: RSLEESGGRLVTPGTPLTLTCTTSGFSLSSYDMSWVRQAPGKGLEWIGYITYGGNIYYATWAKGRFTTSKTSTTVDLKITSPTTEDTATYFCARTLYTGGRYYFSLWGPGTLVTVSS
VL: B5 VL with A14V, D33N, L35V, P42L, P58S, T76I, S97N, G98V
notes: as for B1
B7: 23D1 (antibody, human IgG1, kappa, V domains shown)
VH: QELVESGGGLFQPGGSLALTCKASGFSLSNIYVMCWVRQAPGKGLEWIACIGTGSGDTDYATWAKGRFTISKTSSTTVTLQMTSLTAADTATYFCARDPGAGTWNLWGPGTLVTVSS
VL: DIVMTQTPSSVEAAVGGTVTIKCQASQTIGSRLAWYQQKPGQPPKLLIYSASTLASGVSSRFKGSGSGTQFTLTISDLDSADAATYYCQSYYYTSTSYPNAFGGGTEVVVKR
notes: as for B1
B8: 18E4 (antibody, human IgG1, kappa, V domains shown)
VH: QSLEESGGDLVKPGASLTLTCTASGFSFNNYWICWIRQAPGKGLEWVACIYSPSGDIKYYANWAKGRFTVSKTSSTTVTLQMTSLTGADTATYFCARELSGSSYEGYFESWGPGTLVTVSS
VL: AQVLTQTPSSVSAAVGGTVTINCQCSQSVYGHNWLAWYQHKPGQPPKLLMYRASNLASGVPSRFKGSGSGSQFTLTIGEVQSDDAATYYCQGYYNGGSYAFGGGTEVVVRR
notes: as for B1
B9: 17F7 (antibody, human IgG1, kappa, V domains shown)
VH: QSVEESGGRLVTPGTPLTLTCTASGFSLSSYYMSWVRQAPGKGLEWIGFISKTAITYYASWARGRFTISKTSTAVDLKITSPTTEDTATYFCARVDAYSAGDLWGPGTLVTVSS
VL: AQVLTQTPSSVSAAVGGTVTINCQASQSVYSDNRLSWFQQKSGQPPKLLIYSTSSLASGVPSRFSGSGSGTQFTLTISGVQSDDAASYYCQGEFICTSADCFVFGGGTEVVVKR
notes: as for B1
B10: Anti-ICAM1 G12 (antibody, human IgG1, lambda, V domains shown)
VH: QVQLQESGGGLVQPGGSLRLSCAASGFTFSSYAMSWVRQAPGKGLEWVSAISGSGGSTYYADSVKGRFTISRDNSKNTLYLQMSSLRAEDTAFYYCANSAYTGGWYDYWGHGTLVTVSS
VL: ASELTQDPAVSVALGQTVKITCQGDSLRTYYASWYQQRPGQAPVLVIYGENSRPSGIPDRFSGSSSGNTASLTITGAQAEDEADYYCNSRDSSGNHLRVFGGGTKLTVLG
notes: Human IgG1 with a lambda light chain; also called anti-ICAM1 clone G12

The binders below were run against T2, CD38 on the surface of Daudi cells (human, UniProt P28907 1-300) (assay: flow cytometry, Daudi cells;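 note: purified antibodies incubated with Daudi cells for 1 h at 4 °C, bound antibody detected by fluorescent secondary antibody and read by flow cytometry as MFI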).
T2 construct: whole, on cells
Description: Harvested cells were centrifuged at 2000 rpm for 5 min and resuspended with 10-15 ml ice-cold culture medium. Cells were counted and then 3×10⁶ cells were resuspended per mL of blocking buffer (PBS plus 2% FBS). 100 μl of the cell suspension was dispensed into each well of a 96-well plate and incubated at room temperature for 10-20 min. […] While incubating, purified antibodies were diluted to the desired dilution with blocking buffer. After a 10-20 minutes incubation, cells were centrifuged for 5 min at 2000 rmp in a refrigerated centrifuge. Blocking buffer was aspirated, and cells were resuspended in 100 μl/well diluted antibodies and incubated for 1 hour at 4° C. The cells were then washed 3 times with PBS plus 2% FBS. After the final wash, the cells were resuspended in 100 μl 1:500 diluted secondary antibody (Invitrogen, Cat #: A10631) and incubated for 1 hour at 4° C. in the dark. The cells were then washed 3 times with 200 μl PBS by centrifuging at 2000 rpm for 5 min. After the last wash, the cells were resuspended in 300 μl cold PBS and analyzed on a FACSVerse™ (BD Biosciences) flow cytometer.

Binder | EC50 | Max Binding MFI
B1 | 298 pM | 1200 MFI
B2 | 263 pM | 2260 MFI
B3 | 503 pM | 859 MFI
B4 | 347 pM | 1180 MFI
B5 | 325 pM | 1330 MFI
B6 | 263 pM | 1030 MFI
B7 | 704 pM | 1000 MFI
B8 | 900 pM | 1580 MFI
B9 | 432 pM | 1530 MFI

The binders below were run against T3, ICAM1 on the surface of DU145 cells (human, UniProt P05362 28-532) (assay: flow cytometry, DU145 cells;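 note: purified antibodies in dilution series bound to cells for 1 h at 4 °C, detected with a fluorescent secondary antibody (1 h, 4 °C, dark), read by flow cytometry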).
T3 construct: whole, on cells
T3 sequence (P05362 28-532): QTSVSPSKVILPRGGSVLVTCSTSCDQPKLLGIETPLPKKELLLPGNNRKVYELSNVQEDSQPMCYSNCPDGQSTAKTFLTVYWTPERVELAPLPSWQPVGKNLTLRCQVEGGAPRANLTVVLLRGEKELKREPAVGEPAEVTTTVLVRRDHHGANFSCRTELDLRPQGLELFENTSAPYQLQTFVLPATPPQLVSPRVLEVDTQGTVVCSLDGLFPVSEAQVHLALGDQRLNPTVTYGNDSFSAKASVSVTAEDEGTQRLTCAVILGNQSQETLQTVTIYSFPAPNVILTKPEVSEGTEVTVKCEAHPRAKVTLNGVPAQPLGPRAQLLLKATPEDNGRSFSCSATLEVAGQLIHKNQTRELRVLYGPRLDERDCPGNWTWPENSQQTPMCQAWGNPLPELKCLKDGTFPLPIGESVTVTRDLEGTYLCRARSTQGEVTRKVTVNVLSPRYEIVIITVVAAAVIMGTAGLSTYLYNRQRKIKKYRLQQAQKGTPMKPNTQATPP

Binder | EC50 | Max Binding MFI
B10 | 260 pM | 5010 MFI

Each binder was assayed against T4, recombinant human CD38 (human, UniProt P28907 43-300, limits assumed) (assay: SPR (Biacore 8K), antibody captured, antigen injected;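 note: antibodies held on a CM5 chip through anti-human IgG Fc, antigen in 3-fold serial dilutions, 1 min association then 10 min dissociation at 25 °C, 1:1 Langmuir global fit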).
Description: (§1) The binding kinetics of the anti-CD38 and anti-ICAM1 antibodies were evaluated on a Biacore 8K instrument (GE Healthcare). Biacore Series S CM5 sensor chips were immobilized with monoclonal mouse anti-human IgG (Fc) antibody (human antibody capture kit from GE Healthcare). Antibodies were captured on each flow cell. Serial 3-fold dilutions of each antigen were injected at a flow rate of 30 μl/min. Each sample was analyzed with 1 min association and 10 min dissociation at room temperature (25° C.). After each injection, the chip was regenerated using 3M MgCl₂. A 1:1 Langmuir model of simultaneous fitting of kₒₙ and koff was used for kinetics analysis.

Binder | Kd | koff | kon
B1 | 310 pM | 0.000117 s⁻¹ | 376000 M⁻¹ s⁻¹
B2 | 150 pM | 0.000142 s⁻¹ | 923000 M⁻¹ s⁻¹
B3 | 70 pM | 2.59e-05 s⁻¹ | 380000 M⁻¹ s⁻¹
B4 | 30 pM | 3.48e-05 s⁻¹ | 1.15e+06 M⁻¹ s⁻¹
B5 | 0.029 pM | 2.77e-08 s⁻¹ | 970000 M⁻¹ s⁻¹
B6 | 10 pM | 2.24e-05 s⁻¹ | 1.84e+06 M⁻¹ s⁻¹
B7 | 670 pM | 0.000125 s⁻¹ | 187000 M⁻¹ s⁻¹
B8 | 270 pM | 8.13e-05 s⁻¹ | 303000 M⁻¹ s⁻¹
B9 | 7560 pM | 0.00378 s⁻¹ | 500000 M⁻¹ s⁻¹

What follows are binders tested against T5, cynomolgus CD38 ECD (cynomolgus, UniProt Q5VAN0 44-301, biotinylated on the AviTag during preparation) in the same assay as above.
T5 construct: also called Cyno-CD38; Avi-Cyno CD38 ECD
Description: as §1

Binder | Kd | koff | kon
B1 | 280 pM | 0.00029 s⁻¹ | 1.02e+06 M⁻¹ s⁻¹
B2 | 60 pM | 0.000166 s⁻¹ | 2.64e+06 M⁻¹ s⁻¹
B3 | 140 pM | 0.000175 s⁻¹ | 1.23e+06 M⁻¹ s⁻¹
B4 | 150 pM | 0.000187 s⁻¹ | 1.23e+06 M⁻¹ s⁻¹
B5 | 40 pM | 9.46e-05 s⁻¹ | 2.43e+06 M⁻¹ s⁻¹
B6 | 180 pM | 0.000185 s⁻¹ | 1.04e+06 M⁻¹ s⁻¹
B7 | 550 pM | 0.000294 s⁻¹ | 536000 M⁻¹ s⁻¹
B8 | 420 pM | 0.000236 s⁻¹ | 563000 M⁻¹ s⁻¹
B9 | 2320 pM | 0.00382 s⁻¹ | 1.65e+06 M⁻¹ s⁻¹

The binders below were run against T6, recombinant human ICAM1 (human, UniProt P05362 28-480, limits assumed) in the same assay as above.
T6 sequence (P05362 28-480 limits assumed): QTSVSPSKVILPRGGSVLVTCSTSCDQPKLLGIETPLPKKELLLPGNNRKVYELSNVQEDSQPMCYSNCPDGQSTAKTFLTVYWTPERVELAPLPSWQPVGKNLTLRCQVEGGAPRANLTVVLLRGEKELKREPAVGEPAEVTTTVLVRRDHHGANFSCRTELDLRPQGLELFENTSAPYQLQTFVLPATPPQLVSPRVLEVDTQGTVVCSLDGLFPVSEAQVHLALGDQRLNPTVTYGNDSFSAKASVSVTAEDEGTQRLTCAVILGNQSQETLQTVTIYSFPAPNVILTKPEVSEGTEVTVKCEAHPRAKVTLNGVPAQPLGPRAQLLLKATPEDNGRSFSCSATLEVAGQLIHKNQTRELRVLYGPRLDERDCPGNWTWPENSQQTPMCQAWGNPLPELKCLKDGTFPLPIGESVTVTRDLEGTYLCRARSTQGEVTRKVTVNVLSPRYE
Description: as §1

Binder | Kd | koff | kon
B10 | 12200 pM | 0.00331 s⁻¹ | 272000 M⁻¹ s⁻¹

Each binder was assayed against T1, Rhesus-ICAM1 in the same assay as above.
Description: as §1

Binder | Kd | koff | kon
B10 | 17700 pM | 0.0224 s⁻¹ | 1.27e+06 M⁻¹ s⁻¹

What follows are binders tested against T6, recombinant human ICAM1 (assay: SPR (Biacore T200), antigen immobilised, antibody injected).
Description: The binding kinetics of the bispecific anti-CD38/anti-ICAM1 antibodies were evaluated using Biacore T200 (GE Healthcare). The recombinant CD38 or ICAM1 were immobilized at low density on Biacore Series S CM5 sensor chips using the amine coupling kit (GE Healthcare). Serial 3-fold dilutions of each antibody were injected at a flow rate of 30 ul/min. Each sample was analyzed with 3m association and 15 min dissociation at room temperature (25° C.). After each injection, the chip was regenerated using 10 mM Glycine pH1.5. A 1:1 Langmuir model of simultaneous fitting of kₒₙ and koff was used for kinetics analysis.

Binder | Kd | koff | kon
B10 | 3200 pM | 0.000763 s⁻¹ | 242000 M⁻¹ s⁻¹

These binders were tested against T4, recombinant human CD38 (assay: ELISA: plate coated with 1 ug/ml recombinant human CD38 ECD, serially diluted antibody, OD450).
Description: (§2) The plate was coated overnight at 4° C. with 1 μg/ml recombinant CD38 or ICAM1. After washing 3 times, the plate was blocked with 300 μl 1% BSA in PBST at 37° C. for 1 hour. Serially diluted antibodies were added and incubated at 37° C. for 1 hour. The plate was then washed 4 times with PBST and incubated with 1:5000 diluted 2nd antibody (Sigma, Cat #A0293) at 37° C. for 1 hour.

Binder | EC50 (read off the curve)
B1 | ~60 pM
B2 | ~60 pM
B3 | ~60 pM
B4 | ~60 pM
B5 | ~60 pM
B6 | ~60 pM
B7 | ~60 pM
B8 | ~60 pM
B9 | ~60 pM

The binders below were run against T6, recombinant human ICAM1 (assay: ELISA: plate coated with 1 ug/ml recombinant human ICAM1 ECD, serially diluted antibody, OD450).
Description: as §2

Binder | EC50 (read off the curve)
B10 | ~40 pM

The binders below were run against T1, Rhesus-ICAM1 (assay: ELISA: plate coated with 1 ug/ml recombinant rhesus ICAM1 ECD, serially diluted antibody, OD450).
Description: as §2

Binder | EC50 (read off the curve)
B10 | ~40 pM

These binders were tested against T5, cynomolgus CD38 ECD (assay: ELISA: plate coated with 1 ug/ml recombinant cynomolgus CD38 ECD, serially diluted antibody, OD450).
Description: as §2

Binder | EC50 (read off the curve)
B1 | ~60 pM
B2 | ~60 pM
B3 | ~60 pM
B4 | ~60 pM
B5 | ~60 pM
B6 | ~60 pM
B7 | ~60 pM
B8 | ~60 pM
B9 | ~60 pM
